Two molecules from article PMC5291263 can be followed below.

The Kd is the concentration at which binding is half-saturated. Higher therefore signals weaker binding.

The target in data set [1] is T1, GB1-SRSF1 RRM2 WT (pseudo-RRM) (human, UniProt Q07955 107-203). Briefly: NMR.
In data set [2] the target is T1, GB1-SRSF1 RRM2 WT (pseudo-RRM). Briefly: ITC. A general note: Isothermal titration calorimetry measures the heat released or taken up as one component is titrated into another.
The target of the next data set is GB1-SRSF1 RRM2 R142A (human, UniProt Q07955 107-203, R142A). Briefly: ITC.
Chain of GB1-SRSF1 RRM2 R142A (Q07955 107-203 R142A): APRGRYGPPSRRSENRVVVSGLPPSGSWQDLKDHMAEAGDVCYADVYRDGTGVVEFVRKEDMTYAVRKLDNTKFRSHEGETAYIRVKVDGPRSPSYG

T1 sequence (Q07955 107-203): as the sequence (Q07955 107-203 R142A) above, with A36R counted along it

B1: 5'-UGAAGGAC-3' RNA (ssRNA)
RNA: UGAAGGAC
Turning to B1, the binding result in data set [1] was “binds”.

B2: 5'-AGGAC-3' RNA (ssRNA)
RNA: AGGAC
Take B2: the Kd in data set [2] came to 1 µM; in the data set with GB1-SRSF1 RRM2 R142A it was 7 µM.
